Experimental data published in patent US20090311253A1 (AbbVie / Abbott, published 2009).
Several values for one entry are separate records, joined by “and”; a condition that tells them apart may be missing. Equal values may be shown once. Read-outs that look alike come from different tables or passages of the source.

T1: Recombinant Human TRANCE/RANKL/TNFSF 11 (human, UniProt O14788 69-317)
T1 construct: extracellular domain
T1 sequence (looked up): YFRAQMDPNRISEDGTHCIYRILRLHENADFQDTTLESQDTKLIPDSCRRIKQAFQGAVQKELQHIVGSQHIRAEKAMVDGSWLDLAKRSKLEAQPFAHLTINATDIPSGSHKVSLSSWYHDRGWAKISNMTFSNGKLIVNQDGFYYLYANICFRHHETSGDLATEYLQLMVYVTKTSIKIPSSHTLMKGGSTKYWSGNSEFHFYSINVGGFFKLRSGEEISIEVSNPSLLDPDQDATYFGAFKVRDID

T2: IL-1α (UniProt P01583 113-271)
T2 construct: also called IL-1alpha; IL-1a
T2 sequence (looked up): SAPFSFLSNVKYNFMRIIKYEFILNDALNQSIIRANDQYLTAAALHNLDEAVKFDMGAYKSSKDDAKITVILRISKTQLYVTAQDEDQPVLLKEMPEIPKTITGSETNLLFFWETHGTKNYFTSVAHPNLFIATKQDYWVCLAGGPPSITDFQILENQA


Assays:
Recombinant Human IL-1β [1] = target: T3, Recombinant Human IL-1β (human, UniProt P01584 117-269); assay: direct bind ELISA
T3 construct: also called IL-1b; IL-1B
Experimental: (§1) Enzyme Linked Immunosorbent Assays to screen for antibodies that bind a desired target antigen were performed as follows. High bind ELISA plates (Corning Costar # 3369, Acton, Mass.) were coated with 100 μL/well of 10 μg/ml of desired target antigen (R&D Systems, Minneapolis, Minn.) or desired target antigen extra-cellular domain/FC fusion protein (R&D Systems, Minneapolis, Minn.) or monoclonal mouse anti-polyhistidine antibody (R&D Systems # MAB050, Minneapolis, Minn.) in phosphate buffered saline (10×PBS, Abbott Bioresearch Center, Media Prep# MPS-073, Worcester, Mass.) overnight at 4° C. Plates were washed four times with PBS containing 0.02% Tween 20. Plates were blocked by the addition of 300 μL/well blocking solution (non-fat dry milk powder, various retail suppliers, diluted to 2% in PBS) for ½ hour at room temperature. Plates were washed four times after blocking with PBS containing 0.02% Tween 20.
(§2) Plates were washed 4 times with PBS containing 0.02% Tween 20.
(§3) One hundred microliters of enhanced TMB solution (Neogen Corp. #308177, K Blue, Lexington, Ky.) was added to each well and incubated for 10 minutes at room temperature. The reaction was stopped by the addition of 50 μL 1N sulphuric acid. Plates were read spectrophotometrically at a wavelength of 450 nm.

Recombinant Human IL-1β [2] = target: T3, Recombinant Human IL-1β; assay: Biacore SPR
Experimental: (§4) The BIACORE assay (Biacore, Inc, Piscataway, N.J.) determines the affinity of antibodies or DVD-Ig with kinetic measurements of on-rate and off-rate constants. Binding of antibodies or DVD-Ig to a target antigen (for example, a purified recombinant target antigen) is determined by surface plasmon resonance-based measurements with a BiacoreR 1000 or 3000 instrument (Biacore® AB, Uppsala, Sweden) using running HBS-EP (10 mM HEPES [pH 7.4], 150 mM NaCl, 3 mM EDTA, and 0.005% surfactant P20) at 25° C. All chemicals are obtained from Biacore® AB (Uppsala, Sweden) or otherwise from a different source as described in the text. For example, approximately 5000 RU of goat anti-mouse IgG, (Fcγ), fragment specific polyclonal antibody (Pierce Biotechnology Inc, Rockford, Ill.) diluted in 10 mM sodium acetate (pH 4.5) is directly immobilized across a CM5 research grade biosensor chip using a standard amine coupling kit according to manufacturer's instructions and procedures at 25 μg/ml. Unreacted moieties on the biosensor surface are blocked with ethanolamine. Modified carboxymethyl dextran surface in flowcell 2 and 4 is used as a reaction surface. Unmodified carboxymethyl dextran without goat anti-mouse IgG in flow cell 1 and 3 is used as the reference surface. For kinetic analysis, rate equations derived from the 1:1 Langmuir binding model are fitted simultaneously to association and dissociation phases of all eight injections (using global fit analysis) with the use of Biaevaluation 4.0.1 software. Purified antibodies or DVD-Ig are diluted in HEPES-buffered saline for capture across goat anti-mouse IgG specific reaction surfaces. Antibodies or DVD-Ig to be captured as a ligand (25 μg/ml) are injected over reaction matrices at a flow rate of 5 μl/min. The association and dissociation rate constants, kₒₙ (M⁻¹s⁻¹) and koff (s⁻¹) are determined under a continuous flow rate of 25 μl/min. Rate constants are derived by making kinetic binding measurements at different antigen concentrations ranging from […]. The equilibrium dissociation constant (M) of the reaction between antibodies or DVD-Igs and the target antigen is then calculated from the kinetic rate constants by the following formula: KD=koff/kₒₙ. Binding is recorded as a function of time and kinetic rate constants are calculated.

Recombinant Human IL-1β [3] = target: T3, Recombinant Human IL-1β; assay: direct bind ELISA; remark: listed apart in the source
Recombinant Human IL-1β [4] = target: T3, Recombinant Human IL-1β; assay: cell-based or functional assay
[5] = target: T1, Recombinant Human TRANCE/RANKL/TNFSF 11; assay: direct bind ELISA
Experimental: as §1, §2, §3

[6] = target: T1, Recombinant Human TRANCE/RANKL/TNFSF 11; assay: Biacore SPR
Experimental: as §4

IL-1α = target: T2, IL-1α; assay: direct bind ELISA

Binder | EC50 (Recombinant Human IL-1β [3]) [nM] | EC50 (IL-1α) [nM] | further results
DVD383 (bispecific antibody, human IgG1, kappa, vectors V1, V2) heavy: not shown light: DIQMTQSPSSVSASVGDRVTITCRASQGISSWLAWYQQKPGKAPKLLIYEASNLETGVPSRFSGSGSGSDFTLTISSLQPEDFATYYCQQTSSFLLSFGGGTKVEHKRTVAAPSVFIFPPDIQMTQSPSSLSASVGDRVTITCRASGNIHNYLTWYQQTPGKAPKLLIYNAKTLADGVPSRFSGSGSGTDYTFTISSLQPEDIATYYCQHFWSIPYTFGQGTKLQITTVAAPSVFIFPPSDEQLKSGTASVVCLLNNFYPREAKVQWKVDNALQSGNSQESVTEQDSKDSTYSLSSTLTLSKADYEKHKVYACEVTHQGLSSPVTKSFNRGEC | 2620 | – | –
DVD125 (bispecific antibody, human IgG1, kappa, outer AB032, inner AB018; vectors V1, V2) heavy: not shown light: EIVLTQSPDFQSVTPKEKVTITCRASQSIGSSLHWYQQKPDQSPKLLIKYASQSFSGVPSRFSGSGSGTDFTLTINSLEAEDAAAYYCHQSSSLPFTFGPGTKVDIKRTVAAPEIVLTQSPGTLSLSPGERATLSCRASQSVRGRYLAWYQQKPGQAPRLLIYGASSRATGIPDRFSGSGSGTDFTLTISRLEPEDFAVFYCQQYGSSPRTFGQGTKVEIKRTVAAPSVFIFPPSDEQLKSGTASVVCLLNNFYPREAKVQWKVDNALQSGNSQESVTEQDSKDSTYSLSSTLTLSKADYEKHKVYACEVTHQGLSSPVTKSFNRGEC | – | – | IL-1β Neutralization Assay EC50 (MRC5 cells, hIL-8) (Recombinant Human IL-1β [4]): 0.043 nM; EC50 [5]: 2.89 nM; EC50 (Recombinant Human IL-1β [1]): 4.36 nM; Kd [6]: 3.5 nM; koff [6]: 7.45e-05 s⁻¹; kon [6]: 21200 M⁻¹ s⁻¹; Kd (Recombinant Human IL-1β [2]): 0.0829 nM; koff (Recombinant Human IL-1β [2]): 0.000107 s⁻¹; kon (Recombinant Human IL-1β [2]): 1.29e+06 M⁻¹ s⁻¹
DVD166 (bispecific antibody, human IgG1, kappa, vectors V1, V2; also called RANKL and CD-20 DVD-Ig) heavy: not shown light: EIVLTQSPGTLSLSPGERATLSCRASQSVRGRYLAWYQQKPGQAPRLLIYGASSRATGIPDRFSGSGSGTDFTLTISRLEPEDFAVFYCQQYGSSPRTFGQGTKVEIKRTVAAPQIVLSQSPAILSPSPGEKVTMTCRASSSVSYIHWFQQKPGSSPKPWIYATSNLASGVPVRFSGSGSGTSYSLTISRVEAEDAATYYCQQWTSNPPTFGGGTKLEIKRTVAAPSVFIFPPSDEQLKSGTASVVCLLNNFYPREAKVQWKVDNALQSGNSQESVTEQDSKDSTYSLSSTLTLSKADYEKHKVYACEVTHQGLSSPVTKSFNRGEC | – | – | EC50 [5]: 0.12 nM
DVD379 (bispecific antibody, human IgG1, kappa, vectors V1, V2) heavy: not shown light: DIQMTQSPSSVSASVGDRVTITCRASQGISSWLAWYQQKPGKAPKLLIYEASNLETGVPSRFSGSGSGSDFTLTISSLQPEDFATYYCQQTSSFLLSFGGGTKVEHKRTVAAPDIQMTQSPSSLSASVGDRVTITCRASGNIHNYLTWYQQTPGKAPKLLIYNAKTLADGVPSRFSGSGSGTDYTFTISSLQPEDIATYYCQHFWSIPYTFGQGTKLQITTVAAPSVFIFPPSDEQLKSGTASVVCLLNNFYPREAKVQWKVDNALQSGNSQESVTEQDSKDSTYSLSSTLTLSKADYEKHKVYACEVTHQGLSSPVTKSFNRGEC | 150 | – | –
DVD377 (bispecific antibody, human IgG1, kappa, vectors V1, V2) heavy: not shown light: DIQMTQSPSSVSASVGDRVTITCRASQGISSWLAWYQQKPGKAPKLLIYEASNLETGVPSRFSGSGSGSDFTLTISSLQPEDFATYYCQQTSSFLLSFGGGTKVEHKRTVAAPEIVLTQSPDFQSVTPKEKVTITCRASQSIGSSLHWYQQKPDQSPKLLIKYASQSFSGVPSRFSGSGSGTDFTLTINSLEAEDAAAYYCHQSSSLPFTFGPGTKVDIKRTVAAPSVFIFPPSDEQLKSGTASVVCLLNNFYPREAKVQWKVDNALQSGNSQESVTEQDSKDSTYSLSSTLTLSKADYEKHKVYACEVTHQGLSSPVTKSFNRGEC | 165 | 143 | –
DVD381 (bispecific antibody, human IgG1, kappa, vectors V1, V2) heavy: not shown light: DIQMTQSPSSVSASVGDRVTITCRASQGISSWLAWYQQKPGKAPKLLIYEASNLETGVPSRFSGSGSGSDFTLTISSLQPEDFATYYCQQTSSFLLSFGGGTKVEHKRTVAAPSVFIFPPEIVLTQSPDFQSVTPKEKVTITCRASQSIGSSLHWYQQKPDQSPKLLIKYASQSFSGVPSRFSGSGSGTDFTLTINSLEAEDAAAYYCHQSSSLPFTFGPGTKVDIKRTVAAPSVFIFPPSDEQLKSGTASVVCLLNNFYPREAKVQWKVDNALQSGNSQESVTEQDSKDSTYSLSSTLTLSKADYEKHKVYACEVTHQGLSSPVTKSFNRGEC | 500 | 965 | –

Continued by falling EC50 (Recombinant Human IL-1β [3]), values first:

EC50 (Recombinant Human IL-1β [3]) [nM] | EC50 (IL-1α) [nM] | Binder | further results
6.52 | 4.61 | DVD382 (bispecific antibody, human IgG1, kappa, vectors V1, V2) heavy: not shown light: EIVLTQSPDFQSVTPKEKVTITCRASQSIGSSLHWYQQKPDQSPKLLIKYASQSFSGVPSRFSGSGSGTDFTLTINSLEAEDAAAYYCHQSSSLPFTFGPGTKVDIKRTVAAPSVFIFPPDIQMTQSPSSVSASVGDRVTITCRASQGISSWLAWYQQKPGKAPKLLIYEASNLETGVPSRFSGSGSGSDFTLTISSLQPEDFATYYCQQTSSFLLSFGGGTKVEHKRTVAAPSVFIFPPSDEQLKSGTASVVCLLNNFYPREAKVQWKVDNALQSGNSQESVTEQDSKDSTYSLSSTLTLSKADYEKHKVYACEVTHQGLSSPVTKSFNRGEC | –
6.47 | 8.78 | DVD374 (bispecific antibody, human IgG1, kappa, vectors V1, V2) heavy: not shown light: EIVLTQSPDFQSVTPKEKVTITCRASQSIGSSLHWYQQKPDQSPKLLIKYASQSFSGVPSRFSGSGSGTDFTLTINSLEAEDAAAYYCHQSSSLPFTFGPGTKVDIKRTVAAPSVFIFPPDIQMTQSPSSVSASVGDRVTITCRASQGISSWLAWYQQKPGKAPKLLIYEASNLETGVPSRFSGSGSGSDFTLTISSLQPEDFATYYCQQTSSFLLSFGGGTKVEHKRTVAAPSVFIFPPSDEQLKSGTASVVCLLNNFYPREAKVQWKVDNALQSGNSQESVTEQDSKDSTYSLSSTLTLSKADYEKHKVYACEVTHQGLSSPVTKSFNRGEC | –
1.89 | 2.86 | DVD378 (bispecific antibody, human IgG1, kappa, vectors V1, V2) heavy: not shown light: EIVLTQSPDFQSVTPKEKVTITCRASQSIGSSLHWYQQKPDQSPKLLIKYASQSFSGVPSRFSGSGSGTDFTLTINSLEAEDAAAYYCHQSSSLPFTFGPGTKVDIKRTVAAPDIQMTQSPSSVSASVGDRVTITCRASQGISSWLAWYQQKPGKAPKLLIYEASNLETGVPSRFSGSGSGSDFTLTISSLQPEDFATYYCQQTSSFLLSFGGGTKVEHKRTVAAPSVFIFPPSDEQLKSGTASVVCLLNNFYPREAKVQWKVDNALQSGNSQESVTEQDSKDSTYSLSSTLTLSKADYEKHKVYACEVTHQGLSSPVTKSFNRGEC | –
0.91 | – | AB032 (antibody, human IgG1, kappa, V domains shown, vectors V1 and V2) VH: QVQLVESGGGVVQPGRSLRLSCAASGFTFSVYGMNWVRQAPGKGLEWVAIIWYDGDNQYYADSVKGRFTISRDNSKNTLYLQMNGLRAEDTAVYYCARDLRTGPFDYWGQGTLVTVSS VL: EIVLTQSPDFQSVTPKEKVTITCRASQSIGSSLHWYQQKPDQSPKLLIKYASQSFSGVPSRFSGSGSGTDFTLTINSLEAEDAAAYYCHQSSSLPFTFGPGTKVDIKR | EC50 (Recombinant Human IL-1β [1]): 2.61 nM and 5.27 nM; Kd (Recombinant Human IL-1β [2]): 0.0131 nM
